According to patent US11261437B2, “Procoagulant compounds” (Bioverativ Therapeutics Inc., priority 2012, dated 2022):
*1 amine or outer side, *2 acyl side, *3 side chain or, on linkers, in order; H or OH if unused. Bridges are numbered along the chain shown (N, C = ends). Where no end group is shown, it is not given here. [ ]: non-standard residue; d: D form. The star is where a group is joined. PABC = O=C(OCc1ccc(N[*:1])cc1)[*:2]; Pip = O=C(O)[C@@H]1CCCCN1; Acm = CC(=O)NC*

Tests used:
Type in all cases: biochemical
thrombin [1] = biological target: T1, thrombin (Homo sapiens, UniProt P00734); test: Thrombin cleavage of Compound 7 (HPLC); settings: 1.4 nm thrombin, peptide 10 μM, PBS, 37° C., after 30 minutes
Procedure: FIG. 5 depicts the cleavage of Compound 7 by thrombin. Upon cleavage with 1.4 nM thrombin in PBS, the clean synthetic procoagulant peptide is released, as well as the portion of the molecule comprising the thrombin substrate, the GGGG linker, and the N-terminal cysteine. To conduct the reaction, 21 μL of peptide (0.24 mM) in water was added to 476.5 μL PBS. The mixture was incubated at 37° C. for 30 min, followed by 2.5 μL of thrombin (278 nM, 10 μg/mL), giving the following approximate initial concentrations: thrombin=1.4 nM, peptide=10 μM. The mixture was incubated at 37° C. Aliquots (60 μL) at various time points were quenched with 1 μL of hirudin (10 μM) and injected into the HPLC (C-18 column, CH3CN/H2O, 0 to 70% over 12 minutes, 60° C. 0.5 mL/min, ? =280 nm). Compound 7 was cleaved rapidly by 1.4 nm thrombin. Approximately 90% of Compound 7 was cleaved after 30 minutes.

plasma (TGA assay) = test: Cleavage of Compound 7 during the TGA assay (HPLC of plasma); settings: plasma at the end of TGA assay
Procedure: Plasma at the end of TGA assay for Compound 7 was transferred into cold CH3CN (1 mL) and centrifuged at 13 k rpm for 10 min. Supernatant (1.1 mL) was transferred to a new vial and dried by speedvac. The resulting solid was reconstituted with 30 μL of H2O and injected into the HPLC for analysis.

thrombin [2] = biological target: T1, thrombin; test: Thrombin cleavage of Compounds 1, 4, 5 and 6 by 1.4 nM thrombin (HPLC); settings: thrombin 1.4 nM, peptide 50 μM, PBS, 37° C.
Procedure: FIG. 9 depicts the cleavage of Compounds 1, 4, 5 and 6 by 1.4 nM thrombin. Compounds 1, 4 and 5 incorporate PABC and different thrombin-cleavable substrates.
50 μL of peptide (1 mM) in water was added to 900 μL PBS. The mixture was incubated at 37° C. for 30 min, followed by 50 μL of thrombin (27.8 nM, 1 μg/mL), giving the following approximate initial concentrations: thrombin=1.4 nM, peptide=50 μM. The mixture was incubated at 37° C. Aliquots (95 μL) at various time points were quenched with 5 μL of hirudin (2 μM) and injected into the HPLC (C-18 column, CH3CN/H2O, 0 to 70% over 12 minutes, 60° C. 0.5 mL/min, ? =280 nm). The decreases of peptide peak areas were used to calculate yield.

Row | Thrombin-mediated release of peptide IVGGQE (thrombin [2]) | Substance | Compound cleaved by thrombin (thrombin [1]) | Cleavage during the course of a TGA assay (plasma (TGA assay))
1 | – | Cys(Acm)-Gly-Gly-Gly-Gly-Dphe-Pip-Arg-PABC-rRAPGKLTCLASYCWLFWTGIA-NH2 (disulfide) (C(Acm)GGGG[dF][Pip]R[PABC][dR]RAPGKLTCLASYCWLFWTGIA-NH2; disulfide 18-23 (inferred)) [Compound 7] | Approximately 90% | cleaved completely
2 | not observed | Ala-Leu-Val-Pro-Arg-Ile-Val-Gly-Gly-Gln-Glu-NH2 (ALVPRIVGGQE-NH2) [Compound 6] | – | –
